Data from patent US20200155655A1 (GACHON UNIVERSITY OF INDUSTRY ACADEMIC COOPERATION …, published 2020).

What was measured:
[1] = molecular target: T1, leucyl-tRNA synthetase (LRS), endogenous in MEF cell lysate (UniProt Q8BMJ2 1-1178); experiment: co-immunoprecipitation from MEF cell lysate, Western blot
T1 construct: Endogenous protein immunoprecipitated from MEF cells
Method: Particularly, MEF cells stimulated by amino acids by the same manner as described in Example <1-1> were washed with cold PBS. At this time, MEF cells unstimulated with amino acids were used as the control. The cells were lysed in mild lysis buffer (MLB: 10 mM Tris (pH 7.5), 2 mM EDTA, 100 mM NaCl, […], 50 mM NaF, 1 mM Na₃VO₄ and protease inhibitor cocktail (Sigma)). On the other hand, for immunoprecipitation of LRS, the cells were lysed in MIPT buffer. Then, the lysate was microcentrifuged at 13,000×g for 10 minutes to collect supernatant. An antibody was added to the supernatant at 4° C., followed by immunoprecipitation. Reaction was induced in the presence of protein G-agarose or M2-beads (Sigma). The beads were washed with lysis buffer 3 to 5 times, followed by Western blotting according to the conventional method. Immunoprecipitation for Vps34 was performed with protein G-agarose beads, and immunoprecipitation for Flag-LRS was performed with M2-beads.

[2] = molecular target: T1, leucyl-tRNA synthetase (LRS), …; experiment: immunoprecipitation with Atg14L antibody from MEF cell lysate, Western blot

T1 sequence (Q8BMJ2 whole entry): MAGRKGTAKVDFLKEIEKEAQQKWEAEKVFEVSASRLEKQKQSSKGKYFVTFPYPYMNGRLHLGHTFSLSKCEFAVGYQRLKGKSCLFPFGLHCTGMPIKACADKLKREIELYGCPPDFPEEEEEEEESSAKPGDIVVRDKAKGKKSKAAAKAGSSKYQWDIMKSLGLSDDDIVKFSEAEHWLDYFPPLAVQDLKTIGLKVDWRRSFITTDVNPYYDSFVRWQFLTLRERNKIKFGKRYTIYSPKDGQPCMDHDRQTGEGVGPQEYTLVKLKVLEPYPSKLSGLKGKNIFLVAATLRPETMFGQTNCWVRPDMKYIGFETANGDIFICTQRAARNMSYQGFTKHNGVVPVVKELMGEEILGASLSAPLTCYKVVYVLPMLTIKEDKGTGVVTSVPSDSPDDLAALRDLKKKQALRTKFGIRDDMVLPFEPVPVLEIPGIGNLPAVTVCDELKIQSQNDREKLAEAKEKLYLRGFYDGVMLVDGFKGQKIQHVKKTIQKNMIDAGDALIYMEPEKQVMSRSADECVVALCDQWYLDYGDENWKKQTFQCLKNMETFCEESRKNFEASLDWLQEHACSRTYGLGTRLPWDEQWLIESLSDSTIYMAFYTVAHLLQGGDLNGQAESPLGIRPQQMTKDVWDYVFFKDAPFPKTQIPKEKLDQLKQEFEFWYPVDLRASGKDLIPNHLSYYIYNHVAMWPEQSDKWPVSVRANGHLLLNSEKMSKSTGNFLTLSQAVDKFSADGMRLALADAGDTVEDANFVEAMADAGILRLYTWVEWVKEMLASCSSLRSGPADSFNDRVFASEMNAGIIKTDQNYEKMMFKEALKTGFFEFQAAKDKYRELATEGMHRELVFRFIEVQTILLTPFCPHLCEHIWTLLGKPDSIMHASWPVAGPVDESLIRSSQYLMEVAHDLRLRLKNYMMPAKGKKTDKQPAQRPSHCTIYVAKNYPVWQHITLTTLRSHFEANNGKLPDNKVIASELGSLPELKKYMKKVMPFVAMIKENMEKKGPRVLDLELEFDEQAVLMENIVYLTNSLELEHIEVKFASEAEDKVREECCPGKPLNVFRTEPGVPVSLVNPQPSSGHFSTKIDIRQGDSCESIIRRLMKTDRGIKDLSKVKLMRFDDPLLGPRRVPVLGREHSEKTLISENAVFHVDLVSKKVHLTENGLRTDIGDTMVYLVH

| binding result [1] | binding result [2] | Binder |
| --- | --- | --- |
| binds |  | Vps34 (vacuolar protein sorting 34), endogenous in MEF cell lysate (enzyme, UniProt Q6PF93 1-887, looked up, Endogenous protein from MEF cells; also called Vps34 immune complex) MGEAEKFHYIYSCDLDINVQLKIGSLEGKREQKSYKAVLEDPMLKFSGLYQETCSDLYVTCQVFAEGKPLALPVRTSYKAFSTRWNWNEWLKLPVKYPDLPRNAQVALTIWDVYGPGSAVPVGGTTVSLFGKYGMFRQGMHDLKVWPNVEADGSEPTRTPGRTSSTLSEDQMSRLAKLTKAHRQGHMVKVDWLDRLTFREIEMINESEKRSSNFMYLMVEFRCVKCDDKEYGIVYYEKDGDESSPILTSFELVKVPDPQMSMENLVESKHHKLARSLRSGPSDHDLKPNATTRDQLNIIVSYPPTKQLTYEEQDLVWKFRYYLTNQEKALTKFLKCVNWDLPQEAKQALELLGKWKPMDVEDSLELLSSHYTNPTVRRYAVARLRQADDEDLLMYLLQLVQALKYENFDDIKNGLEPTKKDSQTSASESLSNSGVSSGDIDSSQIITNPLPPVASPPPASKAKEVSDGENLEQDLCTFLISRACKNSTLANYLYWYVIVECEDQDTQQRDPKTHEMYLNVMRRFSQALLKGDKSVRVMRSLLAAQQTFVDRLVHLMKAVQRESGNRKKKNERLQALLGDNEKMNLSDVELIPLPLEPQVKIRGIIPETATLFKSALMPAQLFFKTEDGGKYPVIFKHGDDLRQDQLILQIISLMDKLLRKENLDLKLTPYKVLATSTKHGFMQFIQSVPVAEVLDTEGSIQNFFRKYAPSETGPYGISAEVMDTYVKSCAGYCVITYILGVGDRHLDNLLLTKTGKLFHIDFGYILGRDPKPLPPPMKLNKEMVEGMGGTQSEQYQEFRKQCYTAFLHLRRYSNLILNLFSLMVDANIPDIALEPDKTVKKVQDKFRLDLSDEEAVHYMQSLIDESVHALFAAVVEQIHKFAQYWRK |
|  | no binding | Atg14L, endogenous in MEF cell lysate (other, UniProt Q8CDJ3 1-492, looked up, Endogenous protein; also called autophagic Vps34 complex) MASPSGKGSWTPEAPGFGPRALARDLVDSVDDAEGLYVAVERCPLCNTTRRRLTCAKCVQSGDFVYFDGRDRERFIDKKERLSQLKNKQEEFQKEVLKAMEGKRLTDQLRWKIMSCKMRIEQLKQTICKGNEEMKKNSEGLLKNKEKNQKLYSRAQRHQEKKEKIQRHNRKLGDLVEKKTIDLKSHYERLARLRRSHILELTSIIFPIDEVKTSGRDPADVSSETDSAMTSSMVSKLAEARRTTYLSGRWVCDDHNGDTSISITGPWISLPNNGDYSAYYNWVEEKKTTQGPDMEHNNPAYTISAALGYATQLVNIVSHILDINLPKKLCNSEFCGENLSKQKLTRAVRKLNANILYLCSSQHVNLDQLQPLHTLRNLMHLVSPRSEHLGRSGPFEVRADLEESMEFVDPGVAGESDASGDERVSDEETDLGTDWENLPSPRFCDIPSQPVEVSQSQSTQVSPPIASSSAGGMISSAAASVTSWFKAYTGHR |
